We go through 35 variants from the Human Domainome abundance scans (Beltran et al. 2025).

The labels stand for the following.
B1: V(D)J recombination-activating protein 2, residues 415 to 491; numbered along this chain, P55895 (parent)
chain: YWITCCPTCDVDINTWVPFYSTELNKPAMIYCSHGDGHWVHAQCMDLAERTLIHLSAGSNKYYCNEHVEIARALHTP

± gives the uncertainty stated by the source.

In the data set the parent is B1. In words: abundance fitness (aPCA) (normalised: wild type 0, dead -1); higher = more abundant; growth selection in yeast, the domain comes from the species named. To be noted: Homo sapiens.
YWITCCRTCDVDINTWVPFYSTELNKPAMIYCSHGDGHWVHAQCMDLAERTLIHLSAGSNKYYCNEHVEIARALHTP [P7R]: the abundance fitness is -0.635 ± 0.31.
Take YWITCCWTCDVDINTWVPFYSTELNKPAMIYCSHGDGHWVHAQCMDLAERTLIHLSAGSNKYYCNEHVEIARALHTP [P7W]: the abundance fitness was -0.242 ± 0.23.
For the variant YWITCCVTCDVDINTWVPFYSTELNKPAMIYCSHGDGHWVHAQCMDLAERTLIHLSAGSNKYYCNEHVEIARALHTP [P7V], the abundance fitness was -0.006 ± 0.34.
Regarding YWITCCSTCDVDINTWVPFYSTELNKPAMIYCSHGDGHWVHAQCMDLAERTLIHLSAGSNKYYCNEHVEIARALHTP [P7S], the abundance fitness is 0.075 ± 0.41.
Regarding YWITCCDTCDVDINTWVPFYSTELNKPAMIYCSHGDGHWVHAQCMDLAERTLIHLSAGSNKYYCNEHVEIARALHTP [P7D], the abundance fitness is 0.002 ± 0.28.
On to YWITCCKTCDVDINTWVPFYSTELNKPAMIYCSHGDGHWVHAQCMDLAERTLIHLSAGSNKYYCNEHVEIARALHTP [P7K], for which the abundance fitness was determined as 0.084 ± 0.31.
As to YWITCCLTCDVDINTWVPFYSTELNKPAMIYCSHGDGHWVHAQCMDLAERTLIHLSAGSNKYYCNEHVEIARALHTP [P7L], the abundance fitness is -0.065 ± 0.2.
As for YWITCCETCDVDINTWVPFYSTELNKPAMIYCSHGDGHWVHAQCMDLAERTLIHLSAGSNKYYCNEHVEIARALHTP [P7E], the abundance fitness is 0.09 ± 0.22.
YWITACPTCDVDINTWVPFYSTELNKPAMIYCSHGDGHWVHAQCMDLAERTLIHLSAGSNKYYCNEHVEIARALHTP [C5A]: the abundance fitness is -0.616 ± 0.41.
In the case of YWITGCPTCDVDINTWVPFYSTELNKPAMIYCSHGDGHWVHAQCMDLAERTLIHLSAGSNKYYCNEHVEIARALHTP [C5G], the abundance fitness was -0.392 ± 0.2.
For YWILCCPTCDVDINTWVPFYSTELNKPAMIYCSHGDGHWVHAQCMDLAERTLIHLSAGSNKYYCNEHVEIARALHTP [T4L], the abundance fitness was -0.049 ± 0.053.
Regarding YWIECCPTCDVDINTWVPFYSTELNKPAMIYCSHGDGHWVHAQCMDLAERTLIHLSAGSNKYYCNEHVEIARALHTP [T4E], the abundance fitness was -0.057 ± 0.063.
With YWIQCCPTCDVDINTWVPFYSTELNKPAMIYCSHGDGHWVHAQCMDLAERTLIHLSAGSNKYYCNEHVEIARALHTP [T4Q], the abundance fitness is -0.185 ± 0.077.
With YWIYCCPTCDVDINTWVPFYSTELNKPAMIYCSHGDGHWVHAQCMDLAERTLIHLSAGSNKYYCNEHVEIARALHTP [T4Y], the abundance fitness is -0.141 ± 0.12.
On to YWIWCCPTCDVDINTWVPFYSTELNKPAMIYCSHGDGHWVHAQCMDLAERTLIHLSAGSNKYYCNEHVEIARALHTP [T4W], for which the abundance fitness is -0.297 ± 0.07.
The value for YWIRCCPTCDVDINTWVPFYSTELNKPAMIYCSHGDGHWVHAQCMDLAERTLIHLSAGSNKYYCNEHVEIARALHTP [T4R] was -0.013 ± 0.035; that for YWIVCCPTCDVDINTWVPFYSTELNKPAMIYCSHGDGHWVHAQCMDLAERTLIHLSAGSNKYYCNEHVEIARALHTP [T4V] was -0.128 ± 0.045; that for YWINCCPTCDVDINTWVPFYSTELNKPAMIYCSHGDGHWVHAQCMDLAERTLIHLSAGSNKYYCNEHVEIARALHTP [T4N] was 0.012 ± 0.091.
Take YWIMCCPTCDVDINTWVPFYSTELNKPAMIYCSHGDGHWVHAQCMDLAERTLIHLSAGSNKYYCNEHVEIARALHTP [T4M]: the abundance fitness is -0.176 ± 0.08.
In the case of YWIDCCPTCDVDINTWVPFYSTELNKPAMIYCSHGDGHWVHAQCMDLAERTLIHLSAGSNKYYCNEHVEIARALHTP [T4D], the abundance fitness was -0.022 ± 0.12.
As for YWIKCCPTCDVDINTWVPFYSTELNKPAMIYCSHGDGHWVHAQCMDLAERTLIHLSAGSNKYYCNEHVEIARALHTP [T4K], the abundance fitness was -0.048 ± 0.069.
Turning to YWISCCPTCDVDINTWVPFYSTELNKPAMIYCSHGDGHWVHAQCMDLAERTLIHLSAGSNKYYCNEHVEIARALHTP [T4S], the abundance fitness is -0.037 ± 0.054.
The value for YWIFCCPTCDVDINTWVPFYSTELNKPAMIYCSHGDGHWVHAQCMDLAERTLIHLSAGSNKYYCNEHVEIARALHTP [T4F] was -0.101 ± 0.1.
Consider YWIPCCPTCDVDINTWVPFYSTELNKPAMIYCSHGDGHWVHAQCMDLAERTLIHLSAGSNKYYCNEHVEIARALHTP [T4P], for which the abundance fitness was -0.234 ± 0.068.
On to YWIICCPTCDVDINTWVPFYSTELNKPAMIYCSHGDGHWVHAQCMDLAERTLIHLSAGSNKYYCNEHVEIARALHTP [T4I], for which the abundance fitness was -0.016 ± 0.1.
For the variant YWIACCPTCDVDINTWVPFYSTELNKPAMIYCSHGDGHWVHAQCMDLAERTLIHLSAGSNKYYCNEHVEIARALHTP [T4A], the abundance fitness was -0.122 ± 0.046.
Turning to YWICCCPTCDVDINTWVPFYSTELNKPAMIYCSHGDGHWVHAQCMDLAERTLIHLSAGSNKYYCNEHVEIARALHTP [T4C], the abundance fitness was -0.119 ± 0.1.
Turning to YWCTCCPTCDVDINTWVPFYSTELNKPAMIYCSHGDGHWVHAQCMDLAERTLIHLSAGSNKYYCNEHVEIARALHTP [I3C], the abundance fitness is -0.117 ± 0.057.
With YWATCCPTCDVDINTWVPFYSTELNKPAMIYCSHGDGHWVHAQCMDLAERTLIHLSAGSNKYYCNEHVEIARALHTP [I3A], the abundance fitness is -0.057 ± 0.042.
YWKTCCPTCDVDINTWVPFYSTELNKPAMIYCSHGDGHWVHAQCMDLAERTLIHLSAGSNKYYCNEHVEIARALHTP [I3K]: the abundance fitness was -0.018 ± 0.057.
For the variant YWLTCCPTCDVDINTWVPFYSTELNKPAMIYCSHGDGHWVHAQCMDLAERTLIHLSAGSNKYYCNEHVEIARALHTP [I3L], the abundance fitness was -0.112 ± 0.042.
Regarding YWNTCCPTCDVDINTWVPFYSTELNKPAMIYCSHGDGHWVHAQCMDLAERTLIHLSAGSNKYYCNEHVEIARALHTP [I3N], the abundance fitness is -0.053 ± 0.15.
As to YWYTCCPTCDVDINTWVPFYSTELNKPAMIYCSHGDGHWVHAQCMDLAERTLIHLSAGSNKYYCNEHVEIARALHTP [I3Y], the abundance fitness is -0.202 ± 0.098.
As to YWSTCCPTCDVDINTWVPFYSTELNKPAMIYCSHGDGHWVHAQCMDLAERTLIHLSAGSNKYYCNEHVEIARALHTP [I3S], the abundance fitness is -0.118 ± 0.044.
The value for YWGTCCPTCDVDINTWVPFYSTELNKPAMIYCSHGDGHWVHAQCMDLAERTLIHLSAGSNKYYCNEHVEIARALHTP [I3G] was -0.021 ± 0.033.
